What was measured:
[1] = target: Purified SUMO-1 (Biomol UW9190), not acetylated
[2] = target: Purified SUMO-2 (Biomol UW9200)
[3] = target: Purified SUMO-3 (Biomol UW9210)
Sequence of Purified SUMO-3 (Biomol UW9210) (P55854 whole entry): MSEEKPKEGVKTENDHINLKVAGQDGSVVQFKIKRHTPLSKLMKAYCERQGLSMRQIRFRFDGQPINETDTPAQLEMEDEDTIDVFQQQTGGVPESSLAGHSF

Protein	in vitro acetylation with 14C-acetyl CoA, autoradiography [1]	in vitro acetylation with 14C-acetyl CoA, autoradiography [2]	in vitro acetylation with 14C-acetyl CoA, autoradiography [3]
CBP (CREB binding protein) from Biomol (protein) RKENKFSAKRLQTTRLGNHLEDRVNKFLRRQNHPEAGEVFVRVVASSDKTVEVKPGMKSRFVDSGEMSESFPYRTKALFAFEEIDGVDVCFFGMHVQEYGSDCPPPNTRRVYISYLDSIHFFRPRCLRTAVYHEILIGYLEYVKKLGYVTGHIWACPPSEGDDYIFHCHPPDQKIPKPKRLQEWYKKMLDKAFAERIIHDYKDIFKQATEDRLTSAKELPYFEGDFWPNVLEESIKELEQEEEERKKEESTAASETTEGSQGDSKNAKKKNNKKTNKNKSSISRANKKKPSMPNVSNDLSQKLYATMEKHKEVFFVIHLHAGPVINTLPPIVDPDPLLSCDLMDGRDAFLTLARDKHWEFSSLRRSKWSTLCMLVELHTQGQDRFVYTCNEC	purified SUMO-1 was efficiently acetylated by CBP (lane 3)	SUMO-2 and SUMO-3 were also robustly acetylated by CBP (FIG. 2D, lanes 6-7)	SUMO-2 and SUMO-3 were also robustly acetylated by CBP (FIG. 2D, lanes 6-7)
PCAF (protein) GVIEFHVVGNSLNQKPNKKILMWLVGLQNVFSHQLPRMPKEYITRLVFDPKHKTLALIKDGRVIGGICFRMFPSQGFTEIVFCAVTSNEQVKGYGTHLMNHLKEYHIKHDILNFLTYADEYAIGYFKKQGFSKEIKIPKTKYVGYIKDYEGATLMGCELNPRIPYTE	but not by PCAF (not shown)		
